The source of these data is the supplement of paper PMC10598134.

± gives the standard deviation.

The nature of this data set: collision cross section of modified peptide (TIMS, N2, iRT-aligned); higher = larger / more extended gas-phase ion. The procedure, abridged:
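Collision cross section was derived from the Mason-Schamp equation. Each value averages 1–3 technical replicates of the most abundant feature per charge state, measured on a timsTOF Pro/HT in dda-PASEF mode (nitrogen, ~2.4 mbar) after a 120-min nanoflow C18 gradient at 60 °C. Synthetic peptide pools (~100 fmol/µL in 2% acetonitrile/0.1% formic acid, iRT standard spiked 1:40) were identified with MaxQuant, and 1/K0 was calibrated with three reference ions and aligned run-wise to the median iRT peptide deviation.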

The mark [1] stands for this setting: charge state: 2, modification: hydroxyisobutyryl.
The mark [2] stands for this setting: charge state: 3, modification: hydroxyisobutyryl.
[3] abbreviates: charge state: 3, modification: GlyGly (K).
[4] abbreviates: charge state: 2, modification: Succinyl.
The mark [5] stands for this setting: charge state: 2, modification: Nitro (Y).
Setting [6] is: charge state: 2, modification: Acetyl (K).
Where [7] appears, read: charge state: 2, modification: Formyl.
The mark [8] stands for this setting: charge state: 2, modification: GlyGly (K).

As for “IHNAENIQPGEQKYEYK [_IHNAENIQPGEQK(hydroxyisobutyryl)YEYK_]”, the collision cross section runs as follows: under setting [1], 491.39 ± 0.68 Å²; under setting [2], 532.88 ± 2 Å².

“ITESVAETAQTIKK [_ITESVAETAQTIK(Dimethyl (K))K_]” registered a collision cross section (charge state: 2, modification: Dimethyl (K)) of 449.13 ± 1.2 Å² and a collision cross section (charge state: 3, modification: Dimethyl (K)) of 499.12 ± 1.6 Å².

Turning to “ITLSKHQNVQLPR [_ITLSK(Trimethyl (K))HQNVQLPR_]”, the collision cross section (charge state: 3, modification: Trimethyl (K)) amounted to 492.22 ± 3.3 Å².

“SPPLPEHQKIPCNSAEPK [_SPPLPEHQK(GlyGly (K))IPCNSAEPK_]” displayed a collision cross section under setting [3] of 516.26 Å².

Consider “TFGKAAGPSLSHTSGGTQSK [_TFGK(Succinyl)AAGPSLSHTSGGTQSK_]”, for which the collision cross section reads like this: under setting [4], 476.24 Å²; (charge state: 3, modification: Succinyl) 513.01 ± 0.73 Å².

In turn, “CSVLAAANPVYGR [_CSVLAAANPVY(Nitro (Y))GR_]” came in with a collision cross section under setting [5] of 387.22 ± 0.17 Å².

For the setting “charge state: 3, modification: Malonyl”, “PANEKATDDYHYEK [_PANEK(Malonyl)ATDDYHYEK_]” displayed a collision cross section of 498.89 ± 1.6 Å².

Regarding “IPQEKCILQTDVK [_IPQEK(Acetyl (K))CILQTDVK_]”, the collision cross section under setting [6] came to 431.12 ± 1.2 Å².

Turning to TPNLYIYSKK [_TPNLYIYSK(Acetyl (K))K_], the collision cross section under setting [6] turned out to be 385.54 ± 0.92 Å².

On to LAPEYEAAATR [_LAPEY(Nitro (Y))EAAATR_], for which the collision cross section by setting is: under setting [5], 362.69 ± 1.2 Å²; (charge state: 3, modification: Nitro (Y)) 436.11 ± 1.1 Å².

Consider “VEPGSLESSPGLGRGR [_VEPGSLESSPGLGR(Citrullination (R))GR_]”, for which the collision cross section (charge state: 2, modification: Citrullination (R)) was found to be 418.2 ± 0.21 Å² and the collision cross section (charge state: 3, modification: Citrullination (R)) was 495.92 ± 3.1 Å².

In turn, “LEEVTGKLQVAR [_LEEVTGK(Propionyl)LQVAR_]” yielded a collision cross section (charge state: 2, modification: Propionyl) of 394.4 ± 1.3 Å².

As for SGFGKFER [_SGFGK(Acetyl (K))FER_], the collision cross section under setting [6] turned out to be 331.68 ± 1.9 Å².

Consider KFGVLSDNFK [_K(Butyryl)FGVLSDNFK_], for which the collision cross section (charge state: 2, modification: Butyryl) is given as 377.44 ± 0.84 Å².

Consider “VGLQVVAVKAPGFGDNR [_VGLQVVAVK(Gluratylation)APGFGDNR_]”, for which the collision cross section reads like this: (charge state: 2, modification: Glutarylation) 447.64 ± 0.95 Å²; (charge state: 3, modification: Glutarylation) 510.32 ± 1 Å².

“DESFLGKLGGTLAR [_DESFLGK(Formyl)LGGTLAR_]” came in with a collision cross section under setting [7] of 408.46 ± 1.1 Å².

“LGNDFHTNKR [_LGNDFHTNK(hydroxyisobutyryl)R_]”: the collision cross section was determined as 382.96 ± 0.86 Å² under setting [1] and 448.25 ± 2.7 Å² under setting [2].

Turning to ISALQGKLSK [_ISALQGK(Methyl (K))LSK_], the collision cross section runs as follows: (charge state: 2, modification: Methyl (K)) 354.46 ± 1.1 Å²; (charge state: 3, modification: Methyl (K)) 434.86 ± 2.4 Å².

“VFIGNLNTLVVKK [_VFIGNLNTLVVK(hydroxyisobutyryl)K_]”: the collision cross section is, setting by setting: under setting [1], 416.95 ± 0.83 Å²; under setting [2], 490.45 ± 2.8 Å².

As for LLEQKTQESQK [_LLEQK(Succinyl)TQESQK_], under setting [4], the collision cross section was 400.32 ± 0.77 Å².

For the sequence “TTGFYSGFSEVAEKR [_TTGFYSGFSEVAEK(Formyl)R_]”, under setting [7], the collision cross section is listed as 430.24 ± 0.79 Å².

For ITGKNQVTATK [_ITGK(Acetyl (K))NQVTATK_], the collision cross section under setting [6] was 365.02 ± 0.94 Å².

“PGGEGPQCEKTTDVK [_PGGEGPQCEK(GlyGly (K))TTDVK_]”: the collision cross section is listed as 422.06 ± 1.9 Å² under setting [8] and 492.2 ± 3 Å² under setting [3].

For the setting “charge state: 2, modification: Hydroxyproline”, “LGPPGNPGPSGSPGPKGQK [_LGPPGNPGPSGSP(Hydroxyproline)GPKGQK_]” came in with a collision cross section of 423.7 ± 3 Å².

On to “VGTASVLQPVKK [_VGTASVLQPVK(GlyGly (K))K_]”, for which the collision cross section is, setting by setting: under setting [8], 404.53 ± 0.36 Å²; under setting [3], 466.32 ± 0.78 Å².

Consider TPNLYIYSKK [_TPNLYIYSK(GlyGly (K))K_], for which the collision cross section under setting [3] was found to be 446.34 ± 1.1 Å².

ANAIGRGAK [_ANAIGR(Methyl (R))GAK_]: the collision cross section (charge state: 2, modification: Methyl (R)) is 322.43 ± 1.8 Å².
